From patent US11542488B2, “Sortase synthesized chimeric antigen receptors” (Novartis AG, priority 2014, dated 2023)

Columns and labels:
[1] = system: scFV directed to CD19 harboring a LPXTG sortase-recognition motif (scFV19); test: Sortase-mediated labeling of scFV19 with GGGK(TAMRA) peptide, reducing SDS-PAGE and fluorescent scanning; type: biochemical; conditions: for calcium requirement for labeling of scFV19 with TAMRA peptide: absence or presence of 10 mM calcium
Text: Characterization of the enzyme was initially done in vitro using purified proteins. As the reaction substrate, a scFV directed to CD19 (scFV19) comprising a sortase A recognition motif (LPETGG, SEQ ID NO: 21) and a His8 (SEQ ID NO: 111) purification handle at the C-terminus (also referred to herein as scFv19.LPETGG.His8 (“LPETGG” and “His8” disclosed as SEQ ID NOS 21 and 111, respectively)) was cloned, expressed, and purified. This is the same scFV19 that was used in subsequent examples to test site-specific attachment to live cells using sortase:
As a nucleophile for these test reactions fluorescently labeled peptide: GGGK(TAMRA) (KRUEGANA-001-EXP022) (SEQ ID NO:23) was synthesized and purified. The fluorophore moiety allowed for convenient monitoring of the reaction by SDS-PAGE followed by fluorescent scanning.
The activities of mutant and wild-type (SrtA aureus_His6SrtA26-206 (“His6” disclosed as SEQ ID NO: 110)) sortases were compared side-by-side in the absence or presence of 10 mM calcium in 50 mM Tris-Cl, pH 7.4, 150 mM NaCl buffer, using final concentrations of 40 μM sortase, 20 μM scFV.LPETG.His8 (“LPETG” and “His8” disclosed as SEQ ID NOS 112 and 111, respectively), and 1 mM GGGK(TAMRA) (SEQ ID NO:23). The reactions were incubated at 37° for different periods of time (as indicated in FIG. 2), and analyzed by reducing SDS-PAGE followed by fluorescent scanning (using a ChemiDoc gel imaging system from BioRad) and coomassie staining.
The activity of mutant sortase A was active in culture media (RMPI supplemented with 1% FBS) was determined using the same reaction conditions as in Example 2. The presence of the fluorescent bands indicates the successful coupling of scFv19 to the TAMRA-labeled peptide in the presence of cell culture media. […] As in Example 2, the reaction was complete upon 45′ incubation at 37° C. (FIG. 3). […]

[2] = biological target: T1, CD19 (Homo sapiens, UniProt P15391); test: Flow cytometry labeling of K562 cells with scFV19 conjugated to TAMRA; type: binding
T1 construct: expressed in transfected cells; host or cells: K562
T1 sequence (P15391 20-556): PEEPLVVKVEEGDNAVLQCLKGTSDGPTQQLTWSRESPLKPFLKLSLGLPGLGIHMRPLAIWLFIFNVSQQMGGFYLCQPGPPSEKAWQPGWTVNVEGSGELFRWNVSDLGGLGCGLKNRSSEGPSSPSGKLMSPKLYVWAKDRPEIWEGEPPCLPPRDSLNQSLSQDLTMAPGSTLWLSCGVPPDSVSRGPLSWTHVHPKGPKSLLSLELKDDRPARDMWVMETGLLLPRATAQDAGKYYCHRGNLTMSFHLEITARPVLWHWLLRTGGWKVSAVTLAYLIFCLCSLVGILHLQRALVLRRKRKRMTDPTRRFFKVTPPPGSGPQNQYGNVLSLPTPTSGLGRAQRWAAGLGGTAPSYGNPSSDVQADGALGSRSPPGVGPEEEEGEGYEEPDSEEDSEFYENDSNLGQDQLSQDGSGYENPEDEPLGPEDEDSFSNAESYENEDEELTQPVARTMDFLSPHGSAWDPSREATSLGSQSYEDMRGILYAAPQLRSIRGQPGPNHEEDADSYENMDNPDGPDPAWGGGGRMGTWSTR
Text: As a control, scFV19 subjected to the same reaction conditions to label the scFV with TAMRA, but omitting sortase (scFV19.LPETG+TAMRA_not conjugated (SEQ ID NO: 112)) was used. Flow cytometry analysis comparing cell labeling is shown.
To determine whether the presence of the sortase-recognition motif interferes with the ability of the scFV19 to recognize CD19, the scFV19.LPETGG.His8 (“LPETGG” and “His8” disclosed as SEQ ID NOS 21 and 111, respectively) was labeled with the G3K(TAMRA) peptide (SEQ ID NO:23) using the mutant sortase A as described in Example 1. […] Upon reaction, each of the preparations were filtered through a desalting column to remove unreacted G3K(TAMRA) peptide (SEQ ID NO: 23). Different concentrations of the scFV19.LPETG3K(TAMRA) conjugate (“LPETG3K” disclosed as SEQ ID NO: 250) and unconjugated control were then used to label untransduced K562 cells or K562 overexpressing CD19. […] Thus, the results presented herein confirm that the scFV19.LPETGG.His8 substrate (“LPETGG” and “His8” disclosed as SEQ ID NOS 21 and 111, respectively) for sortase is functional and that the sortase labeling strategy can be used to create new tools for FACS staining.

[3] = 40 μM sortase, 20 μM scFV, 1 mM GGGK(TAMRA), 37°

B1: wild-type sortase: wild-type S. aureus sortase A (His6SrtA26-206) (protein, UniProt Q2FV99 26-206, looked up, fragment)
chain: KPHIDNYLHDKDKDEKIEQYDKNVKEQASKDKKQQAKPQIPKDKSKVAGYIEIPDADIKEPVYPGPATPEQLNRGVSFAEENESLDDQNISIAGHTFIDRPNYQFTNLKAAKKGSMVYFKVGNETRKYKMTSIRDVKPTDVGVLDEQKGKDKQLTLITCDDYNEKTGVWEKRKIFVATEVK
modifications: His6 tag
For B1, the “fluorescence at 15 minutes of incubation” value [1, 3] was “no fluorescence was detected” and the “calcium requirement for labeling of scFV19 with TAMRA peptide” value [1, 3] was “essential”.

B2: mutant sortase A: S. aureus Sortase A mutant lacking the N-terminal 59 amino acids, calcium independent and faster (SEQ ID NO: 4) (protein)
chain: MQAKPQIPKDKSKVAGYIEIPDADIKEPVYPGPATREQLNRGVSFAKENQSLDDQNISIAGHTFIDRPNYQFTNLKAAKKGSMVYFKVGNETRKYKMTSIRNVKPTAVEVLDEQKGKDKQLTLITCDDYNEETGVWETRKIFVATEVKLEHHHHHH
In the case of B2, the “incubation time at which fluorescence was demonstrated” value [1, 3] is reported as ≤ 15 min, the “time to same labeling proportion with three-fold higher enzyme concentration” value ([1]; 120 μM versus 40 μM sortase) is reported as “half of the time” and the “incubation time for complete labeling of scFV19 with TAMRA peptide” value ([1]; 50 mM Tris-Cl, pH 7.4, 150 mM NaCl buffer, 37° C.) is reported as 45 ′. For the same molecule, the “reaction speed compared with wild-type sortase” value ([1]; 37°) was “faster”, the “specificity: serum proteins labeled with fluorophore” value ([1]; RPMI + 1% FBS) was “no proteins from the serum” and the “activity in culture media” value ([1]; RPMI supplemented with 1% FBS) was “active”. The “calcium requirement for labeling of scFV19 with TAMRA peptide” value [1, 3] was “regardless of whether calcium was present”, the “fluorescence compared to reactions containing wild-type sortase” value ([1]; all three timepoints) was “Increased fluorescence” and the “incubation time for complete reaction” value ([1]; culture media (RPMI + 1% FBS), 37° C.) was 45 ′. The “labeling differences between reactions in buffer or in culture media” value ([1]; reaction kinetics and fluorescence intensity) was “No major labeling differences”.

B3: scFV19.LPETG3K(TAMRA) conjugate (conjugate)
scFv: EIVMTQSPATLSLSPGERATLSCRASQDISKYLNWYQQKPGQAPRLLIYHTSRLHSGIPARFSGSGSGTDYTLTISSLQPEDFAVYFCQQGNTLPYTFGQGTKLEIKGGGGSGGGGSGGGGSQVQLQESGPGLVKPSETLSLTCTVSGVSLPDYGVSWIRQPPGKGLEWIGVIWGSETTYYSSSLKSRVTISKDNSKNQVSLKLSSVTAADTAVYYCAKHYYYGGSYAMDYWGQGTLVTVSSLPETGGGK
For B3, the “cell labeling by flow cytometry” value ([2]; untransduced K562 cells or K562 overexpressing CD19, 30 min at 4° C., control reaction without sortase) was “cell labeling was observed only with the conjugate and only on K562 cells expressing CD19”.

B4: scFV19.LPETGG.His8: scFV directed to CD19 comprising a sortase A recognition motif (LPETGG) and a His8 handle at the C-terminus (SEQ ID NO: 22) (protein)
scFv: METDTLLLWVLLLWVPGSTGEIVMTQSPATLSLSPGERATLSCRASQDISKYLNWYQQKPGQAPRLLIYHTSRLHSGIPARFSGSGSGTDYTLTISSLQPEDFAVYFCQQGNTLPYTFGQGTKLEIKGGGGSGGGGSGGGGSQVQLQESGPGLVKPSETLSLTCTVSGVSLPDYGVSWIRQPPGKGLEWIGVIWGSETTYYSSSLKSRVTISKDNSKNQVSLKLSSVTAADTAVYYCAKHYYYGGSYAMDYWGQGTLVTVSSLPETGGLDVLFEGPHHHHHHHH
modifications: C-terminal LPETGG sortase motif and His8 tag
With B4 the “functionality of scFV19 carrying the sortase-recognition motif (recognition of CD19)” value ([2]; K562 cells expressing CD19) was “functional”.
